In paper PMC3569735:

Experiments:
V1–V2 bnAb PG9 (human) = assay: SPR
mAb CH59 (human) = assay: SPR

## AE.A244 gp120Δ11 (natural protein)
V1–V2 bnAb PG9 (human)
  Kd: 42.1 nM
mAb CH59 (human)
  Kd: 2.2 nM
